Source: article PMC5111884, “NPAS1-ARNT and NPAS3-ARNT crystal structures implicate the bHLH-PAS family as multi-ligand binding transcription factors”

Legend:
NPAS3;ARNT = NPAS3;ARNT (mouse;mouse?, UniProt Q9QZQ0;P53762 56-455;82-464, |); experiment: fluorescence anisotropy; FP: 2 nM DNA, 20 mM Tris pH 8.0, 50 mM NaCl, 10 mM DTT, 30 min, temperature not stated (DNA annealed in 10 mM Tris pH 7.5, 1 mM EDTA, 2 mM MgCl2); conditions: protein: recombinant;recombinant; tags: vector pSJ2; copies: 1;1; blunt
Sequence of NPAS3;ARNT (Q9QZQ0 56-455, chain 1 of 2): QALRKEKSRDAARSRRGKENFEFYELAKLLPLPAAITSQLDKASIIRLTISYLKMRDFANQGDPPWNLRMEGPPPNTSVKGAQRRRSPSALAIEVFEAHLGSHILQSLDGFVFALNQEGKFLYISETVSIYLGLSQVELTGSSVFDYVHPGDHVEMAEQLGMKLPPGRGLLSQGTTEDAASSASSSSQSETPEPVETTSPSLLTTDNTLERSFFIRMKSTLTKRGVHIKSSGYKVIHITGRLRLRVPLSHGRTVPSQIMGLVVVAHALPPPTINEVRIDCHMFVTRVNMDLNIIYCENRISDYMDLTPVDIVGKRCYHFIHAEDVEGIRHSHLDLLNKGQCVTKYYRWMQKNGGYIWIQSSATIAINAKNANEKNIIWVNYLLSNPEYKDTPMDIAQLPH
Sequence of NPAS3;ARNT (P53762 82-464, chain 2 of 2): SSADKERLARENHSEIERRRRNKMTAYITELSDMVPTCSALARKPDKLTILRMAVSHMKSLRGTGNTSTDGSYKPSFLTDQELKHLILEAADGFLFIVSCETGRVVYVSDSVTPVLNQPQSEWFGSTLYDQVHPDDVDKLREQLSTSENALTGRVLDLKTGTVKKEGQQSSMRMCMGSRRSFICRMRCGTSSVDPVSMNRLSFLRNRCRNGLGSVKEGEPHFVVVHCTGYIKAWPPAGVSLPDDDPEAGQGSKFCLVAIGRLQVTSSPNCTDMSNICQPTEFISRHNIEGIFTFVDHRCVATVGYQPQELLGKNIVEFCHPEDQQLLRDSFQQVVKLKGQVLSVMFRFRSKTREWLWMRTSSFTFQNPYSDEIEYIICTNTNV

NPAS1;ARNT = NPAS1;ARNT (mouse;mouse?, UniProt A2RSH6;P53762 43-423;82-464, |); experiment: as above; conditions: protein: recombinant;recombinant; tags: vector pSJ2; copies: 1;1; blunt
Sequence of NPAS1;ARNT (chain, as listed by the source |, chain 1 of 2): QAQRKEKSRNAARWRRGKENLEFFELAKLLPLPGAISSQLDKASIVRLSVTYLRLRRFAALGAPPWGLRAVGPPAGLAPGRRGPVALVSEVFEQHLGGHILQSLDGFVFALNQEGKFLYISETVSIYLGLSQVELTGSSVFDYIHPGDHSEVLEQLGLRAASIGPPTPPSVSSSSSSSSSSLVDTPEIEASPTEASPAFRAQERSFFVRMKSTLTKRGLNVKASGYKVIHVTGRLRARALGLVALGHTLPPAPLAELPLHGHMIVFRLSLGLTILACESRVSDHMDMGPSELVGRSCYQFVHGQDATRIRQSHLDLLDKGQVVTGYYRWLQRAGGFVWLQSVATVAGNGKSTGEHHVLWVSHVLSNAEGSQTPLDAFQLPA
Sequence of NPAS1;ARNT (P53762 82-464, chain 2 of 2): as the sequence (P53762 82-464, chain 2 of 2) above

B1: HRE 21-mer (FP probe) (dsDNA)
DNA 1: GGCTGCGTACGTGCGGGTCGT
DNA 2: ACGACCCGCACGTACGCAGCC
Kd (NPAS3;ARNT): 17.5 ± 1.1 nM | Kd (NPAS1;ARNT): 16.3 ± 1.1 nM
